The target of experiment [1] is T1, human TPBG (trophoblast glycoprotein), full length, cell surface expressed (human, UniProt Q13641 32-420).
T1 construct: On MCF7, H1975 and BxPC-3 tumour cells, on SW620 clone 4 and on CHO-K1 cells transfected with full length human TPBG; also called huTPBG; 5T4
T1 sequence: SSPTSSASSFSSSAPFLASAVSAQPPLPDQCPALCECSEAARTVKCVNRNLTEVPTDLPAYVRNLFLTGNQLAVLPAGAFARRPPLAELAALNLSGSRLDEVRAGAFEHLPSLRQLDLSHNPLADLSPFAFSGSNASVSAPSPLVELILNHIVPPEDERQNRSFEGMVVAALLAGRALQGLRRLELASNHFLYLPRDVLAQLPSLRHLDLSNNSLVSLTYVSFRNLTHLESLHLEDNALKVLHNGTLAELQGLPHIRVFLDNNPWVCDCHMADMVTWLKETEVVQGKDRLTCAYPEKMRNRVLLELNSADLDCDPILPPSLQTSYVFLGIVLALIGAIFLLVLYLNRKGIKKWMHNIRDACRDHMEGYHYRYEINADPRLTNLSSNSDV
The experiment can be described thus: flow cytometry on SW620 clone 4 cells; ratio of MFI; replicate 2. Background: A flow cytometer gives signals particle by particle.

Experiment [2] concerns the target T1, human TPBG (trophoblast glycoprotein), …. The experiment can be described thus: flow cytometry on SW620 clone 4 cells; ratio of MFI; replicate 1.
Experiment [3] shares this target. The experiment is described as follows: cell-based or functional assay.
Experiment [4] has the same target. The experiment can be described thus: cell-based or functional assay. The source holds these as a separate data set.
Experiment [5] concerns the target T2, recombinant extracellular domain of minipig TPBG (Biacore analyte) (minipig).
T2 chain: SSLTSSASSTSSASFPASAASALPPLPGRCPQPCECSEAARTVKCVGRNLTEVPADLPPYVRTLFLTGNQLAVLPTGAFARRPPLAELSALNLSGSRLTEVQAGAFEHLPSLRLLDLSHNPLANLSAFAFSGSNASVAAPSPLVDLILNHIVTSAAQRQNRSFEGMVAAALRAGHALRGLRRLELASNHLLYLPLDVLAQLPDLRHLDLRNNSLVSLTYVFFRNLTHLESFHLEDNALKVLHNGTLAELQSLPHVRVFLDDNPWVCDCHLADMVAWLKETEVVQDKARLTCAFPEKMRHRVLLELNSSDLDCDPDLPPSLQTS
The experiment can be described thus: SPR (Biacore T200): Fab captured on anti-huFab antibody, minipig TPBG injected for 120 s at 4.9-400 nM, dissociation 660 s.

Experiment [6] concerns the target T1, human TPBG (trophoblast glycoprotein), …. The experiment is described as follows: cell-based or functional assay. The source holds these as a separate data set.
Experiment [7] addresses T3, huTPBG (recombinant human TPBG immobilised on the Biacore chip) (human, UniProt Q13641 32-355, limits assumed).
T3 construct: also called human TPBG antigen
T3 sequence: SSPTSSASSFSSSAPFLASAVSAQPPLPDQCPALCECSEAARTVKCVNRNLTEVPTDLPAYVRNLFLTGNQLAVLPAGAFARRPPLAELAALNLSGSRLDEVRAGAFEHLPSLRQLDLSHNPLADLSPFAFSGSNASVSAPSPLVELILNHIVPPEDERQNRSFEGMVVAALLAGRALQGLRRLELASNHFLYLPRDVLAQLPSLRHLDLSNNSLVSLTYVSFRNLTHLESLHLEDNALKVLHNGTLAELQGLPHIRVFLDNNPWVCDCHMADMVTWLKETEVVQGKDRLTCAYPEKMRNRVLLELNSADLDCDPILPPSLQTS
The experiment can be described thus: SPR Biacore T200; huTPBG amine-coupled, Fab injected. Background: Surface plasmon resonance follows binding to a sensor surface in real time, without labels.

The target in experiment [8] is T1, human TPBG (trophoblast glycoprotein), …. The experiment is described as follows: cell-based or functional assay. This is another data set of the same source.
For experiment [9], the target named is T4, minipig TPBG, full length, cell surface expressed on CHO-K1 cells (minipig).
T4 construct: also called pgTPBG; mpTPBG
T4 chain: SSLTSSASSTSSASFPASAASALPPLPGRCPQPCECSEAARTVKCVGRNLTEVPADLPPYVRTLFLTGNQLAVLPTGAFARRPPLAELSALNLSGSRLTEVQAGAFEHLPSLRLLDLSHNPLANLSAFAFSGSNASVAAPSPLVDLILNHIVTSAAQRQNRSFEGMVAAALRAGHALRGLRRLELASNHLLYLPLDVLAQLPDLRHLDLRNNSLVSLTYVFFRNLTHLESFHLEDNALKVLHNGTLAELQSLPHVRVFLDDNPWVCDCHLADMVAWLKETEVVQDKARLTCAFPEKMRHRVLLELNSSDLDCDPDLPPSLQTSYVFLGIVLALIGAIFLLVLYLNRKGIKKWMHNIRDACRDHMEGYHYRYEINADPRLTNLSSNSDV
The experiment can be described thus: flow cytometry on CHO cells stably expressing minipig TPBG; Fab dilution series 0.01-20 µg/ml, PE-labelled anti-kappa secondary antibody.

In experiment [10] the target is T4, minipig TPBG, full length, cell surface …. The experiment can be described thus: cell-based or functional assay.
The target in experiment [11] is T1, human TPBG (trophoblast glycoprotein), …. The experiment can be described thus: cell-based or functional assay. This is another data set of the same source.
Experiment [12] deals with T4, minipig TPBG, full length, cell surface …. The experiment can be described thus: cell-based or functional assay.
The target in experiment [13] is T5, murine TPBG extracellular domain, huIgG1-Fc-His6 (murine).
T5 construct: also called Fc-TPBG (mo)
The experiment is described as follows: ELISA; Fc-TPBG coated; (-) = no binding. (In general: In an ELISA, binding on a coated surface is turned into a signal by an enzyme label.)

Experiment [14] addresses T6, human TPBG extracellular domain, huIgG1-Fc-His6 (human).
T6 construct: also called Fc-TPBG (hu)
The experiment is described as follows: ELISA; Fc-TPBG coated; mAb titrated from 1 µg/ml.

The target in experiment [15] is T7, rat TPBG extracellular domain, huIgG1-Fc-His6 (rat).
T7 construct: also called Fc-TPBG (rt)
The experiment is described as follows: ELISA; Fc-TPBG coated; mAb titrated from 1 µg/ml.

The target in experiment [16] is T8, minipig TPBG extracellular domain, huIgG1-Fc-His (minipig).
T8 construct: also called Fc-TPBG (mp)
The experiment can be described thus: ELISA; Fc-TPBG coated; mAb titrated from 1 µg/ml.

Experiment [17] concerns the target T7, rat TPBG extracellular domain, …. The experiment is described as follows: ELISA; Fc-TPBG coated; (-) = no binding.
The target of experiment [18] is T9, cynomolgus TPBG extracellular domain, huIgG1-Fc-His6 (cynomolgus).
T9 construct: also called Fc-TPBG (cy)
The experiment can be described thus: ELISA; Fc-TPBG coated; (-) = no binding.

T5 sequence (chain, as listed by the source limits assumed): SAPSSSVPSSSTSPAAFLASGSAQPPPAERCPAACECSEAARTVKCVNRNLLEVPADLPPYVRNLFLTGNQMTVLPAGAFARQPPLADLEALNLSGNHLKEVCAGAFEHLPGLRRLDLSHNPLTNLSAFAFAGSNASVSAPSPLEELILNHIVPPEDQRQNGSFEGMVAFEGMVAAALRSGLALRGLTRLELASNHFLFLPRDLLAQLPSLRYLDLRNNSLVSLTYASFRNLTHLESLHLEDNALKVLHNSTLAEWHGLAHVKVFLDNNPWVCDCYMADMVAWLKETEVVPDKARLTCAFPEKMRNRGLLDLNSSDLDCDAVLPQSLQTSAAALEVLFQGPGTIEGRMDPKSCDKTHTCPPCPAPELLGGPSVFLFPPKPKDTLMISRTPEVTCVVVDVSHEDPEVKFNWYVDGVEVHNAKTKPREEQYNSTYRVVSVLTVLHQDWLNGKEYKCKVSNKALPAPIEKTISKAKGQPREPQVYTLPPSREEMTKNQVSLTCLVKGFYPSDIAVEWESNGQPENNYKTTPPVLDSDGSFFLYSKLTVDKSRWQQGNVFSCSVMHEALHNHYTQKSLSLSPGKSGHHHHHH
T7 sequence (chain, as listed by the source limits assumed): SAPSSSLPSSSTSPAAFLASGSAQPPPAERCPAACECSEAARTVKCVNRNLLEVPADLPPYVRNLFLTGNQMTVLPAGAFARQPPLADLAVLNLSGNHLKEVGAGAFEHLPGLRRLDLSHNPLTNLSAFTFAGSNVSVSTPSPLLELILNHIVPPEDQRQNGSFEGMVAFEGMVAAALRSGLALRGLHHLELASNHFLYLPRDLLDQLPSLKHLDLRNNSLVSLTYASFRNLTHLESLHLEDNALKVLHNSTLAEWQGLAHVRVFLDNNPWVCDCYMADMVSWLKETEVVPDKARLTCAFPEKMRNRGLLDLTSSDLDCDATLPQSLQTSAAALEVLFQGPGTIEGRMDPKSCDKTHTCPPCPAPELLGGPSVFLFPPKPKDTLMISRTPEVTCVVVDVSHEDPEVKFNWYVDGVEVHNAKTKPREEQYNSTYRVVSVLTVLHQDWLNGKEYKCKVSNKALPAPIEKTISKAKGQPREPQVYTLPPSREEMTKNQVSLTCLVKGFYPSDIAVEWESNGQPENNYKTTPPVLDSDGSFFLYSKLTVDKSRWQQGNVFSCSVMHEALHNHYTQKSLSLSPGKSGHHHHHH
T9 sequence (chain, as listed by the source limits assumed): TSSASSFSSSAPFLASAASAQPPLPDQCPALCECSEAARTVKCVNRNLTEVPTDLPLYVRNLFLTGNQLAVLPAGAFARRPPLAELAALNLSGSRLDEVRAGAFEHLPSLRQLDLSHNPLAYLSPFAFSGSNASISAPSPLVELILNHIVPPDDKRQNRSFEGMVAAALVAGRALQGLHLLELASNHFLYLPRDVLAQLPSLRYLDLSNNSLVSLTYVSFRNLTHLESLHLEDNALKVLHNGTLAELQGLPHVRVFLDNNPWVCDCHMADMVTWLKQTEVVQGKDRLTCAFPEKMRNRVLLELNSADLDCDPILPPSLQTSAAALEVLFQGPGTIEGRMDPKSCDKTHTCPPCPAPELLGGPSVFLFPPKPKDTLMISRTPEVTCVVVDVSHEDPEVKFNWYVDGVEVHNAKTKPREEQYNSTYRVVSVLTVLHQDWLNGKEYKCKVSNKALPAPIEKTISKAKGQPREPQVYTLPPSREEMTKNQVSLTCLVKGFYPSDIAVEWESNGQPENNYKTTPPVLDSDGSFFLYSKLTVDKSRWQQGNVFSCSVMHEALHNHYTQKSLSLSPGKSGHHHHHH

B1: prior art anti-TPBG antibody H8, Fab fragment (Fab, V domains shown)
VH: EVQLQQSGPDLVKPGASVKISCKASGYSFTGYYMHWVKQSHGKSLEWIGRINPNNGVTLYNQKFKDKAILTVDKSSTTAYMELRSLTSEDSAVYYCARSTMITNYVMDYWGQVTSVTVSS
VL: SIVMTQTPTFLLVSAGDRVTITCKASQSVSNDVAWYQQKPGQSPTLLISYTSSRYAGVPDRFIGSGYGTDFTFTISTLQAEDLAVYFCQQDYNSPPTFGGGTKLEIKR
notes: also called Fab(H8); Fab1
Usually Kd stands for the equilibrium constant for the complex coming apart. By koff is commonly meant a measure of how fast the partners let go of each other. The term kon denotes the second-order rate constant of association. With B1, in experiment [1], the “Fold change pH 7.2 vs pH 5.5” value came out at 6.8 fold. In addition, in experiment [2], the “Fold change pH 7.2 vs pH 5.5” value stood at 4.2 fold. The “EC50 cytotoxicity, Fab-PE sandwich construct, MCF7 (comparison with A1-A3)” value in experiment [3] turned out to be 1850 pM. Moreover, in [4], the “internalization after 1.0 h, MCF7 cells” value was 61% and the “internalization after 2.0 h, MCF7 cells” value worked out at 79%. For the same molecule, the binding result in experiment [5] is given as “no binding”. Further, in experiment [6], the “EC50 cytotoxicity, Fab-PE sandwich construct, H1975, replicate 1” value stood at 698 pM; the “EC50 cytotoxicity, Fab-PE sandwich construct, H1975, replicate 2” value came to 451 pM; the “EC50 cytotoxicity, Fab-PE sandwich construct, H1975, replicate 3” value turned out to be 656 pM. Besides, in experiment [7], the Kd is 1.58 pM, the koff worked out at 2.17e-07 s⁻¹ and the kon is 137000 M⁻¹ s⁻¹. In addition, in [8], the “EC50 cytotoxicity, Fab-PE sandwich construct, MCF7” value came to 1250 pM. Also, in experiment [9], the binding result is reported as “no binding (tested: 20 µg/ml)”. Moreover, in experiment [10], the “EC50 cytotoxicity, Fab + anti-kappa-Fab-PE, CHO-K1/minipig TPBG, replicate 1” value was determined as 48000 pM and the “EC50 cytotoxicity, Fab + anti-kappa-Fab-PE, CHO-K1/minipig TPBG, replicate 2” value was 45900 pM. Moreover, in experiment [11], the “EC50 cytotoxicity, Fab + anti-kappa-Fab-PE, CHO-K1/human TPBG, replicate 1” value came out at 410 pM and the “EC50 cytotoxicity, Fab + anti-kappa-Fab-PE, CHO-K1/human TPBG, replicate 2” value worked out at 520 pM. For the same molecule, the “fold lower potency on minipig TPBG cells than on human TPBG cells, sandwich construct” value in experiment [12] was roughly 100 fold.

B2: anti-TPBG antibody 091 (mAb) (antibody, V domains shown)
VH: EVHLLESGGGLVHPGGSLRLSCAASGFTFRSDAMHWVRQAPGKGLEWVSGVSGSGGSPYYADSVKGRFTISRDDSKTTLYLQMNSLRAEDTAVYYCATGGSIAGSYYYYPMDVWGQGTTVTVSS
VL: DIQMTQSPSSLSASVGDRVTITCQASQDISNYLNWYQQKPGKAPKLLIYAASTLQIGVPSRFSGSGSGTDFTFTISSLQPEDFATYYCQQANSFPLTFGGGTKVEIK
With B2, the binding result in experiment [13] was “no binding (tested: titrated from 1 µg/ml)”; in experiment [14], “binds”; in experiment [15], “binds”; in experiment [16] it was “binds”.

B3: anti-TPBG antibody 097 (mAb) (antibody, V domains shown)
VH: EVQLLESGGGLAQPGGSLRLSCAASGFTFNNDAMTWVRQAPGKGLEWVSAISGSGGSTYYADSVKGRFTISRDNSKNTLYLQMNSLRAEDTAVYYCAKGGSWGDWYYYFYPMDVWGQGTTVTVSS
VL: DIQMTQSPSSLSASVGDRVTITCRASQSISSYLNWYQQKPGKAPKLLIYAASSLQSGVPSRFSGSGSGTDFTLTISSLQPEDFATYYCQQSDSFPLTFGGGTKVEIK
As to B3, the binding result in [13] is given as “no binding (tested: titrated from 1 µg/ml)”; in experiment [17], “no binding (tested: titrated from 1 µg/ml)”; in experiment [18], “no binding (tested: titrated from 1 µg/ml)”; in [14], “binds”; in experiment [16], “binds”.
